Source: patent US20060234944

Legend:
[1] = biological target: T1, substrate EVNLAVEFWHDR
T1 chain: EVNLAVEFWHDR

[2] = biological target: T2, substrate RWHHEVNLAAEF
T2 chain: RWHHEVNLAAEF

[3] = biological target: T3, substrate EEISEVNLAAEF
T3 chain: EEISEVNLAAEF

B1: memapsin 2 (spontaneously activated promemapsin 2-T1; amino acids 43-456 and 45-456 of SEQ ID NO: 8) (protein)
chain: LRLPRETDEEPEEPGRRGSFVEMVDNLRGKSGQGYYVEMTVGSPPQTLNILVDTGSSNFAVGAAPHPFLHRYYQRQLSSTYRDLRKGVYVPYTQGKWEGELGTDLVSIPHGPNVTVRANIAAITESDKFFINGSNWEGILGLAYAEIARPDDSLEPFFDSLVKQTHVPNLFSLQLCGAGFPLNQSEVLASVGGSMIIGGIDHSLYTGSLWYTPIRREWYYEVIIVRVEINGQDLKMDCKEYNYDKSIVDSGTTNLRLPKKVFEAAVKSIKAASSTEKFPDGFWLGEQLVCWQAGTTPWNIFPVISLYLMGEVTNQSFRITILPQQYLRPVEDVATSQDDCYKFAISQSSTGTVMGAVIMEGFYVVFDRARKRIGFAVSACHVHDEFRTAAVEGPFVTLDMEDCGYNIPQTDEST
[1]
  Km: Km of 83±8.9 mM
[2]
  rate of catalysis in competitive cleavage assay (MALDI-TOF), relative to EVNLAAEFWHDR: a 60-fold decrease in the rate of catalysis for the upstream RWHH (SEQ ID NO: 53) sequence addition when compared to the downstream WHDR (SEQ ID NO: 29) sequence addition
[3]
  rate of catalysis in competitive cleavage assay (MALDI-TOF), relative to EVNLAAEFWHDR: statistically identical rates of catalysis for the upstream EEIS (SEQ ID NO: 52) and the downstream WHDR (SEQ ID NO: 29) sequence additions
